Measured values: article PMC9352680, “A comprehensive thermodynamic model for RNA binding by the Saccharomyces cerevisiae Pumilio protein PUF4”
Numbering of substitutions follows the chain as printed. Names and notes keep the numbering of the source.

B1: Ic_S4_P4E.1_K4.1_C4.1_H4.1_A4.1_[T5A]_[T7A]_F4.1_[A9G]_T4.1 (ssRNA)
RNA: UUUGACAACUGAUCGUUCUUUCUUGUAAAAUGUUCUUUCUCGAUCAGUUGUCUUU
B2: Ic_S4_P4E.1_K4.1_C4.1_H4.1_A4.1_[A6C]_[T7C]_F4.1_[A9G]_T4.1 (ssRNA)
RNA: B1 RNA with A28U, A29C, A30C
B3: Ic_S4_P4E.1_K4.1_C4.1_H4.1_A4.1_[A6G]_F4.1_[T8A]_[A9G]_T4.1 (ssRNA)
RNA: B1 RNA with A28U, A29G, A30U, U31A
B4: Ic_S4_P4E.1_K4.1_C4.1_H4.1_A4.1_[A6C]_F4.1_[T8G]_[A9G]_T4.1 (ssRNA)
RNA: B1 RNA with A28U, A29C, A30U, U31G
B5: Ic_S4_P4E.1_K4.1_C4.1_H4.1_A4.1_[A6G]_F4.1_[T8C]_[A9T]_T4.1 (ssRNA)
RNA: B1 RNA with A28U, A29G, A30U, U31C, G32U
B6: Ic_S4_P4E.1_K4.1_C4.1_H4.1_A4.1_[A6G]_F4.1_[T8A]_T4.1 (ssRNA)
RNA: B1 RNA with A28U, A29G, A30U, U31A, G32A
B7: Ic_S4_P4E.1_K4.1_C4.1_H4.1_A4.1_[A6C]_F4.1_[T8C]_[A9T]_T4.1 (ssRNA)
RNA: B1 RNA with A28U, A29C, A30U, U31C, G32U
B8: Ic_S4_P4E.1_K4.1_C4.1_H4.1_A4.1_[A6C]_[T7G]_F4.1_[T8A]_[A9C]_T4.1 (ssRNA)
RNA: B1 RNA with A28U, A29C, A30G, U31A, G32C
B9: Ic_S4_P4E.1_K4.1_C4.1_H4.1_A4.1_[A6C]_F4.1_[T8A]_[A9G]_T4.1 (ssRNA)
RNA: B1 RNA with A28U, A29C, A30U, U31A
B10: Ic_S4_P4E.1_K4.1_C4.1_H4.1_A4.1_[A6C]_F4.1_[T8G]_[A9C]_T4.1 (ssRNA)
RNA: B1 RNA with A28U, A29C, A30U, U31G, G32C
B11: Ic_S4_P4E.1_K4.1_C4.1_H4.1_A4.1_[A6G]_[T7G]_F4.1_[A9T]_T4.1 (ssRNA)
RNA: B1 RNA with A28U, A29G, A30G, G32U
B12: Ic_S4_P4E.1_K4.1_C4.1_H4.1_A4.1_[T5A]_[T7A]_F4.1_T4.1 (ssRNA)
RNA: B1 RNA with G32A
B13: Ic_S4_P4E.1_K4.1_C4.1_H4.1_A4.1_[A6C]_[T7C]_F4.1_[T8G]_[A9T]_T4.1 (ssRNA)
RNA: B1 RNA with A28U, A29C, A30C, U31G, G32U
B14: Ic_S4_P4E.1_K4.1_C4.1_H4.1_A4.1_[A6C]_[T7A]_F4.1_[A9G]_T4.1 (ssRNA)
RNA: B1 RNA with A28U, A29C
B15: Ic_S4_P4E.1_K4.1_C4.1_H4.1_A4.1_[A6G]_[T7G]_F4.1_[T8C]_[A9C]_T4.1 (ssRNA)
RNA: B1 RNA with A28U, A29G, A30G, U31C, G32C
B16: Ic_S4_P4E.1_K4.1_C4.1_H4.1_A4.1_[A6G]_[T7G]_F4.1_[T8C]_[A9T]_T4.1 (ssRNA)
RNA: B1 RNA with A28U, A29G, A30G, U31C, G32U
B17: Ic_S4_P4E.1_K4.1_C4.1_H4.1_A4.1_[A6G]_[T7C]_F4.1_[T8A]_[A9T]_T4.1 (ssRNA)
RNA: B1 RNA with A28U, A29G, A30C, U31A, G32U
B18: Ic_S4_P4E.1_K4.1_C4.1_H4.1_A4.1_[A6G]_[T7C]_F4.1_[T8A]_T4.1 (ssRNA)
RNA: B1 RNA with A28U, A29G, A30C, U31A, G32A
B19: Ic_S4_P4E.1_K4.1_C4.1_H4.1_A4.1_[A6C]_[T7C]_F4.1_[T8A]_T4.1 (ssRNA)
RNA: B1 RNA with A28U, A29C, A30C, U31A, G32A
B20: Ic_S4_P4E.1_K4.1_C4.1_H4.1_A4.1_[A6C]_F4.1_[T8C]_[A9C]_T4.1 (ssRNA)
RNA: B1 RNA with A28U, A29C, A30U, U31C, G32C
B21: Ic_S4_P4E.1_K4.1_C4.1_H4.1_A4.1_[A6C]_F4.1_[T8A]_[A9C]_T4.1 (ssRNA)
RNA: B1 RNA with A28U, A29C, A30U, U31A, G32C
B22: Ic_S4_P4E.1_K4.1_C4.1_H4.1_A4.1_[A6C]_[T7C]_F4.1_[T8C]_[A9G]_T4.1 (ssRNA)
RNA: B1 RNA with A28U, A29C, A30C, U31C
B23: Ic_S4_P4E.1_K4.1_C4.1_H4.1_A4.1_[T5A]_F4.1_[T8A]_[A9G]_T4.1 (ssRNA)
RNA: B1 RNA with A30U, U31A
B24: Ic_S4_P4E.1_K4.1_C4.1_H4.1_A4.1_[A6T]_[T7G]_F4.1_[T8C]_[A9G]_T4.1 (ssRNA)
RNA: B1 RNA with A28U, A29U, A30G, U31C
B25: Ic_S4_P4E.1_K4.1_C4.1_H4.1_A4.1_[A6G]_[T7C]_F4.1_[T8G]_[A9C]_T4.1 (ssRNA)
RNA: B1 RNA with A28U, A29G, A30C, U31G, G32C
B26: Ic_S4_P4E.1_K4.1_C4.1_H4.1_A4.1_[A6G]_F4.1_[T8G]_[A9G]_T4.1 (ssRNA)
RNA: B1 RNA with A28U, A29G, A30U, U31G
B27: Ic_S4_P4E.1_K4.1_C4.1_H4.1_A4.1_[A6C]_[T7A]_F4.1_[T8A]_[A9T]_T4.1 (ssRNA)
RNA: B1 RNA with A28U, A29C, U31A, G32U
B28: Ic_S4_P4E.1_K4.1_C4.1_H4.1_A4.1_[A6C]_[T7G]_F4.1_[T8C]_[A9C]_T4.1 (ssRNA)
RNA: B1 RNA with A28U, A29C, A30G, U31C, G32C
B29: Ic_S4_P4E.1_K4.1_C4.1_H4.1_A4.1_[A6C]_F4.1_[T8C]_[A9G]_T4.1 (ssRNA)
RNA: B1 RNA with A28U, A29C, A30U, U31C
B30: Ic_S4_P4E.1_K4.1_C4.1_H4.1_A4.1_[T5A]_[T7A]_F4.1_[A9T]_T4.1 (ssRNA)
RNA: B1 RNA with G32U
B31: Ic_S4_P4E.1_K4.1_C4.1_H4.1_A4.1_[A6G]_[T7C]_F4.1_[T8C]_T4.1 (ssRNA)
RNA: B1 RNA with A28U, A29G, A30C, U31C, G32A
B32: Ic_S4_P4E.1_K4.1_C4.1_H4.1_A4.1_[A6C]_[T7C]_F4.1_[T8C]_[A9C]_T4.1 (ssRNA)
RNA: B1 RNA with A28U, A29C, A30C, U31C, G32C
B33: Ic_S4_P4E.1_K4.1_C4.1_H4.1_A4.1_[A6G]_[T7G]_F4.1_[T8C]_[A9G]_T4.1 (ssRNA)
RNA: B1 RNA with A28U, A29G, A30G, U31C
B34: Ic_S4_P4E.1_K4.1_C4.1_H4.1_A4.1_[A6T]_[T7G]_F4.1_[T8G]_[A9T]_T4.1 (ssRNA)
RNA: B1 RNA with A28U, A29U, A30G, U31G, G32U
B35: Ic_S4_P4E.1_K4.1_C4.1_H4.1_A4.1_[A6G]_F4.1_[T8A]_[A9C]_T4.1 (ssRNA)
RNA: B1 RNA with A28U, A29G, A30U, U31A, G32C
B36: Ic_S4_P4E.1_K4.1_C4.1_H4.1_A4.1_[A6C]_[T7A]_F4.1_[T8A]_[A9C]_T4.1 (ssRNA)
RNA: B1 RNA with A28U, A29C, U31A, G32C
B37: Ic_S4_P4E.1_K4.1_C4.1_H4.1_A4.1_[A6C]_[T7G]_F4.1_[T8G]_[A9C]_T4.1 (ssRNA)
RNA: B1 RNA with A28U, A29C, A30G, U31G, G32C
B38: Ic_S4_P4E.1_K4.1_C4.1_H4.1_A4.1_[A6G]_[T7C]_F4.1_[T8G]_[A9T]_T4.1 (ssRNA)
RNA: B1 RNA with A28U, A29G, A30C, U31G, G32U
B39: Ic_S4_P4E.1_K4.1_C4.1_H4.1_A4.1_[A6T]_[T7G]_F4.1_[T8C]_[A9C]_T4.1 (ssRNA)
RNA: B1 RNA with A28U, A29U, A30G, U31C, G32C
B40: Ic_S4_P4E.1_K4.1_C4.1_H4.1_A4.1_[A6G]_[T7C]_F4.1_[T8C]_[A9C]_T4.1 (ssRNA)
RNA: B1 RNA with A28U, A29G, A30C, U31C, G32C
B41: Ic_S4_P4E.1_K4.1_C4.1_H4.1_A4.1_[A6G]_F4.1_[T8C]_[A9C]_T4.1 (ssRNA)
RNA: B1 RNA with A28U, A29G, A30U, U31C, G32C

Target: T1, PUF4 RNA-binding domain (Saccharomyces cerevisiae, UniProt P25339 537-888)
T1 sequence: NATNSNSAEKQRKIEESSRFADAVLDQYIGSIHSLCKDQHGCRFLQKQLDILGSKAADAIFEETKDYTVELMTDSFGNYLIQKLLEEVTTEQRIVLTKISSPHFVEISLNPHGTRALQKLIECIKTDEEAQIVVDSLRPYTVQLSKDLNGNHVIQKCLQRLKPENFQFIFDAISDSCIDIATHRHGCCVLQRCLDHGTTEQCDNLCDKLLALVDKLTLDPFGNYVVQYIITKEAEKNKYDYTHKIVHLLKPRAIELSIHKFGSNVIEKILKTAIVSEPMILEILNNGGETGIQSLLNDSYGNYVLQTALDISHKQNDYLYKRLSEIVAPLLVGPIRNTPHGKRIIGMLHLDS
Assay: Mg; RNA-MaP; 20 mM Na-HEPES pH 7.4, 30 mM KOAc, 0.75 mM MgCl2, 0.1% Tween-20, 5% glycerol, 0.1 mg/mL BSA, 2 mM DTT; 25 C; 0.0125-409.6 nM protein
Details: tags: N-His6-TEV cleaved; C-SNAP kept, Cy3B-labelled; label: tethered on chip by stalled RNA polymerase

With UCUCUUUGUAUAGCAUCUCUU (ssRNA) [Ib_S1_P4E.1_K4.1_C4.1_H4.1_A4.1_[T7G]_F4.1_[T8C]_T4.1] as the binder, how does the Kd read?
The Kd was 26.2 nM.

Which Kd does the source give for UCUCUUUGUAUACGAUCUCUU (ssRNA) [Ic_S1_P4E.1_K4.1_C4.1_H4.1_A4.1_[T7C]_F4.1_[T8G]_T4.1] here?
Its Kd is 42.1 nM.

For B1, which Kd is on record?
The Kd was 44.5 nM.

B2 was tested. Which Kd did it give?
Its Kd is 29.9 nM.

B3 was tested. Which Kd did it give?
The Kd was 186 nM.

How did the Kd turn out when B4 was run?
Its Kd is 89.5 nM.

B5 was tested. Which Kd did it give?
Its Kd is 74.2 nM.

How did the Kd turn out when B6 was run?
Its Kd is 70.5 nM.

For B7, which Kd is on record?
The Kd was 16.7 nM.

For B8, which Kd is on record?
The Kd was over 2300 nM.

B9 was tested. Which Kd did it give?
The Kd was 40.4 nM.

B10 was tested. Which Kd did it give?
Its Kd is 52 nM.

With B11 as the binder, how does the Kd read?
Its Kd is 292 nM.

For B12, which Kd is on record?
The Kd was 3.34 nM.

Which Kd does the source give for B13 here?
The Kd was 172 nM.

Which Kd does the source give for B14 here?
Its Kd is 10.1 nM.

How did the Kd turn out when B15 was run?
Its Kd is 1940 nM.

B16 was tested. Which Kd did it give?
The Kd was 624 nM.

B17 was tested. Which Kd did it give?
Its Kd is 108 nM.

How did the Kd turn out when B18 was run?
Its Kd is 243 nM.

With B19 as the binder, how does the Kd read?
The Kd was 577 nM.

Which Kd does the source give for B20 here?
Its Kd is 31.5 nM.

For B21, which Kd is on record?
Its Kd is 34.1 nM.

B22 was tested. Which Kd did it give?
The Kd was 449 nM.

Which Kd does the source give for B23 here?
Its Kd is 78.7 nM.

With B24 as the binder, how does the Kd read?
Its Kd is 593 nM.

Which Kd does the source give for B25 here?
Its Kd is 995 nM.

Which Kd does the source give for B26 here?
The Kd was 180 nM.

B27 was tested. Which Kd did it give?
The Kd was 50.5 nM.

B28 was tested. Which Kd did it give?
Its Kd is 994 nM.

With B29 as the binder, how does the Kd read?
Its Kd is 31.1 nM.

Which Kd does the source give for B30 here?
The Kd was 65 nM.

With B31 as the binder, how does the Kd read?
Its Kd is 28.5 nM.

With B32 as the binder, how does the Kd read?
Its Kd is 403 nM.

How did the Kd turn out when B33 was run?
Its Kd is over 2300 nM.

Which Kd does the source give for B34 here?
Its Kd is 1310 nM.

With B35 as the binder, how does the Kd read?
Its Kd is 85 nM.

With B36 as the binder, how does the Kd read?
The Kd was 477 nM.

Which Kd does the source give for B37 here?
The Kd was over 2300 nM.

Which Kd does the source give for B38 here?
The Kd was 261 nM.

Which Kd does the source give for B39 here?
Its Kd is 537 nM.

With B40 as the binder, how does the Kd read?
The Kd was 558 nM.

B41 was tested. Which Kd did it give?
The Kd was 36.4 nM.

How did the Kd turn out when UCUCUUUGUAUACCAUCUCUU (ssRNA) [Ib_S1_P4E.1_K4.1_C4.1_H4.1_A4.1_[T7C]_F4.1_[T8C]_T4.1] was run?
The Kd was 13.1 nM.

With UCUCUUUGUAUAACAUCUCUU (ssRNA) [Ib_S1_P4E.1_K4.1_C4.1_H4.1_A4.1_[T7A]_F4.1_[T8C]_T4.1] as the binder, how does the Kd read?
The Kd was 11.8 nM.
